The text below walks through data of the DeepSol protein solubility set.

The nature of the data set: soluble on expression in E. coli; label from the status in PepcDB or PDB records.
As for “MSQFSKDQVQDMYYLSPMQEGMLFHAILNPGQSFYLEQITMKVKGSLNIKCLEESMNVIMDRYDVFRTVFIHEKVKRPVQVVLKKRQFHIEEIDLTHLTGSEQTAKINEYKEQDKIRGFDLTRDIPMRAAIFKKAEESFEWVWSYHHIILDGWCFGIVVQDLFKVYNALREQKPYSLPPVKPYKDYIKWLEKQDKQASLRYWREYLEGFEGQTTFAEQRKKQKDGYEPKELLFSPSEAETKAFTELAKSQHTTLSTALQAVWSVLISRYQQSGDLAFGTVVSGRPAEIKGVEHMVGLFINVVPRRVKLSEGITFNGLLKRLQEQSLQSEPHQYVPLYDIQSQADQPKLIDHIIVFENYPLQDAKNEESSENGFDMVDVHVFEKSNYDLNLMASPGDEMLIKLAYNENVFDEAFILRLKSQLLTAIQQLIQNPDQPVSTINLVDDREREFLLTGLNPPAQAHETKPLTYWFKEAVNANPDAPALTYSGQTLSYRELDEEANRIARRLQKHGAGKGSVVALYTKRSLELVIGILGVLKAGAAYLPVDPKLPEDRISYMLADSAAACLLTHQEMKEQAAELPYTGTTLFIDDQTRFEEQASDPATAIDPNDPAYIMYTSGTTGKPKGNITTHANIQGLVKHVDYMAFSDQDTFLSVSNYAFDAFTFDFYASMLNAARLIIADEHTLLDTERLTDLILQENVNVMFATTALFNLLTDAGEDWMKGLRCILFGGERASVPHVRKALRIMGPGKLINCYGPTEGTVFATAHVVHDLPDSISSLPIGKPISNASVYILNEQSQLQPFGAVGELCISGMGVSKGYVNRADLTKEKFIENPFKPGETLYRTGDLARWLPDGTIEYAGRIDDQVKIRGHRIELEEIEKQLQEYPGVKDAVVVADRHESGDASINAYLVNRTQLSAEDVKAHLKKQLPAYMVPQTFTFLDELPLTTNGKVNKRLLPKPDQDQLAEEWIGPRNEMEETIAQIWSEVLGRKQIGIHDDFFALGGHALKAMTAASRIKKELGIDLPVKLLFEAPTIAGISAYLKNGGSDGLQDVTIMNQDQEQIIFAFPPVLGYGLMYQNLSSRLPSYKLCAFDFIEEEDRLDRYADLIQKLQPEGPLTLFGYSAGCSLAFEAAKKLEEQGRIVQRIIMVDSYKKQGVSDLDGRTVESDVEALMNVNRDNEALNSEAVKHGLKQKTHAFYSYYVNLISTGQVKADIDLLTSGADFDIPEWLASWEEATTGVYRMKRGFGTHAEMLQGETLDRNAEILLEFLNTQTVTVSKGEFEAYVEQKLISEEDLNSAVDHHHHHH”, the “soluble on expression in E. coli” value is given as “soluble”.

For “MSGLSMRNPERRIETNPFDVDAWNLLLREHQSRPIDQERDFYESLVKQFPNSGRYWKAYIEHELRSKNFENVEKLFSRCLVSVLNIDLWKCYIHYVFETKGQRDQYREEMAKAYDFALEKVGMDVQAYSIFTEYIAFLKKVPAVGQYAENQRITAVRKIYQKALATPMHNLELIWNDYCTYEKAINITLAEKLIAERGKEYQNARRVEKDLQQMTRGLNRQAVSVPPKGTATEFKQVELWKNLIAWEKTNPLQTEEYGQHARRVVYTYEQSLLCLGYYPDIWYEAAMFLQEASHTLDEKGDVKMAQVLKLETISLYERAITGLMKESKLLYFAYADFQEEHKQFEAVKNIYDRLLGIEHINPTLTYVQLMRFIRRSEGPNNARLVFKRAREDKRTGYQVFVAAALLEYNCMKDKEVAIRVFKLGLKKYENEPEFGLAYADFLSNLNEDNNTRVVFERILTSSKLPADKSIRIWDRFLDFESCVGDLASILKVEKRRKTAYEEAQKDQTMNHSMLVIDRYKFMDLMPCSGEQLKLIGYNALKGTESIAGPSFVGSKNVPTHGPQAASAIMGGAGGHADVARYGFPRPDISQMIPFKPRVNCTASFHPVPGGVFPPPQSVAHLMSLLPPPTCFIGPFINVELLCNMINNMQLPNVSYPKSEDNMLGPMLEQDVKKDMYQLLATTSDPSAVVRSSALSDLKRKRGDSDDEEDYSHLGAVIGSLGSRDAYKRRMNKKNE”, the “soluble on expression in E. coli” value is recorded as “not soluble”. With “MSTPLSRVITNEIFRVPARRKPKPAVKPSDIPTLKDYTARLVDQKWLRLAARRKSA”, the “soluble on expression in E. coli” value was “not soluble”. For “EFVGRGIGNSVREDLSFNLLLSSDMDETQAQELQRQIAATPFVKDVSYISADQALEEMKKELGEDDPAKMLGYNPLQAEMCVHLKAQYTHPDSLKTIDSAIRTWNGVDNLEYRADMFDIVHRNTRR”, the “soluble on expression in E. coli” value is reported as “not soluble”.

On to “MVRVDQNLFNEVMYLLDELSQDITVPKNVRKVAQDSKAKLSQENESLDLRCATVLSMLDEMANDPNVPAHGRTDLYTIISKLEALSKS”, for which the “soluble on expression in E. coli” value was “not soluble”. The value for “MNKKIYVGMTADIMHPGLIHIIHEATKYGDVIVGLLTDKAIAEHKRLPYLTYDQRKEVVENIKGVCEVVPQEDWSYVPNLEKLKPDYIIHGDDWKTGPLREVREQVFEVMNAQGGKVIEIPYTRGINSSSLDKDIKAIGTTPDVRLKSLRRLIQAKPVVRILEAHDGLCGLIIENLEVQKGDKREVFDGMWSSSLTDSTSKGKPDIEAVDLTTRLQDLNNILECTTKPIIFDGDTGGKIEHFVFTVRTLERHGISAVIIEDKVGLKKNSLFGTDAIQTQDSIEGFCDKIRAGKNAQVTGDFMIIARIESLIAGKPMSDALERAYAYVQAGADGIMIHSKDKSGEDIREFCRTFRKEYAHVPIVVVPTTYDHVHESELHEWGANVVIYANHLLRAAYPAMMNVARTILENERAEEVRPLCMPIKEILELIPGTK” was “not soluble”; that for “MGSDKIHHHHHHMKLRNLLPLLGLMASAAHADAVTIQSCGVSQVFDKTPSRAITLNQQATEVMLALGLQEAMVGTAYIDDAIPAQWNDAYESVPVLAEKYPAAEVVLAQEPDFLFAGFGSAFSEDNLGAAEKWHDLGIGTYLVDASCKDKHLQDVPLTVAPIFEDIETVGKIFNVEDRANALIDTLQQRLDSVKAAPSGAGQTAFIYDSGAETPFSIGCCGGPALLASLTGLQSISSDVPGTWVDLSWEHVVAADPDVILLIEADWSTAAEKRAHMEADPVLSALRAVKEGRFVTVPFSETLLGMRFADGVETVNNQLAKLP” was “not soluble”; that for “MHHHHHHSSGVDLGTENLYFQSMMASQNSFRIEYDTFGELKVPNDKYYGAQTVRSTMNFKIGGVTERMPTPVIKAFGILKRAAAEVNQDYGLDPKIANAIMKAADEVAEGKLNDHFPLVVWQTGSGTQTNMNVNEVISNRAIEMLGGELGSKIPVHPNDHVNKSQSSNDTFPTAMHIAAAIEVHEVLLPGLQKLHDALDAKSKEFAQIIKIGRTHTQDAVPLTLGQEFSGYVQQVKYAMTRIKAAMPRIYELAAGGTAVGTGLNTRIGFAEKVAAKVAALTGLPFVTAPNKFEALAAHDALVELSGAMNTTACSLMKIANDIRFLGSGPRSGLGELILPENEPGSSIMPGKVNPTQCEAMTMVAAQVMGNHVAVTVGGSNGHFELNVFKPMMIKNVLHSARLLGDASVSFTENCVVGIQANTERINKLMNESLMLVTALNPHIGYDKAAKIAKTAHKNGSTLKETAIELGYLTAEQFDEWVKPKDMLGPK” was “soluble”.

For “MHYDVIVIGGGPSGLMAAIGAAEEGANVLLLDKGNKLGRKLAISGGGRCNVTNRLPLDEIVKHIPGNGRFLYSAFSIFNNEDIITFFENLGVKLKEEDPGRMFPVSNKAQSVVDALLTRLKDLGVKIRTNTPVETIEYENGQTKAVILQTGEVLETNHVVIAVGGKSVPQTGSTGDGYAWAEKAGHTITELFPTEVPILSNEPFIRDRSLQGLALRDINLSVLNPKGKAIISHKMDMLFTHFGLSGPAALRCSQFVVKALKKFKTNTIQMSIDALPEENSEQLFQRMLKQMKEDPKKGIKNVLKGYVPERYFLFLLEKNEIDGSEQAGQVSHEKIRALVKDFKEFTVNVNGTQSIEKAFVTGGGVSVKEINPKEMSSKFTNGLYFCGEVLDIHGYTGGYNITSALVTGRIAGTTAGENAKMQY”, the “soluble on expression in E. coli” value is listed as “soluble”. The result for “SLSRRGIDFLNDWIAEHHPDTLTEDPTAIADLADQLMAAAEKQGLSRRDISEEVGSVFQVILEAMQNRSGGRLYSSRWG” reads “soluble”. The result for “MATVAELKAVLKDTLEKKGVLGHLKARIRAEVFNALDDDREPRPSLSHENLLINELIREYLEFNKYKYTASVLIAESGQPVVPLDRQFLIHELNAFEESKDNTIPLLYGILAHFLRGTKDGIQNAFLKGPSLQPSDPSLGRQPSRRKPMDDHLRKEEQKSTNIEDLHVSQAVNR” reads “soluble”; that for “MSLTNKWIGALGLLLSGQLMASELVIESWRADDKALWEQKIIPAFEAANPGIKVKFNPVPNVNYTPTLWENLKAGKAGDLITCRPFDDSLALFKAGHLAEITEMAGMENFPSFAQAPWQTDSGAQTFCVPMASVIHGFFYNKKIFNELGLSVPQTREQFFTVLDKVKADGRYIPLSMSGSESWVASELGYQNIGPNYWKGEDGRLALINGQEHLDDSQYVKVFEELARWRAYLGEDGELRDYGTSNELFTSGKAALYVAGSWEIAPFTDKVDFGVMRPPVAKQGDGCFFTDHTDIGMGMNPASKNPQAAMAFLQWLTTPEFAELYTNSLPGFFSLSNHFFDVTNPAAREMMEWRDQCDSTIRVATQILSRGQPKLGDELAEVSQAVLVGKMTPTAAAERLEQGLKRWYAPHQTRKAKEQECQCVEPISPTTRLNTLPVVDIAPVVASDPVPPTEATILSEEGGSHHHHHH”, “soluble”. As for “GGGGGGMGSPYEYQPEVKWYHVLWDMRNKQFRQWYLKKKYRDMRIAYKYESHILYQKAGMGFLMAAVFMSIFSSDLAVAVFRWPTEDPNELLKSQVWQKYHNQLNERKEYADKLLQDSNYIHRKNNPGE”, the “soluble on expression in E. coli” value is “soluble”.

Consider “IDLSNALPGSRRGFLKGAAVVGLTIGFQWSGARRALAAALPDAGFAPNAFLRIAPDDSVTVIAKHVEMGQGAYTGIATIVAEELDADWSKVRVESAPADAKRYANLAFGTMQGTGGSSAMANSWMQLREAGAKARAMLVEAAARQWQVPAAELRTRDGFVEHPTSQRKASYGSLAAAAAELPVPEKVQLKDPKDFRLIGHQAPRVDVPGKTDGSAQFTLDVSLPGMLVALLQRPPLFGATVKSFDATATRAIPGVVEVVQVPHGVAVVAKGFWAAKQGRDALKVEWDESKAEKRGSEALMAEYRKLAEQPGKPARRDGDAAKAVAGATRRIAASYEFPFLAHAPMEPLDAVVRLTADSCEIWAGDQFQTVDQGNAARTAGLKPEQVKINTLYAGGSFGRRANAWSDYIVEAVSIAKALGANGVPVKLQWTREDDIHGGFYRPMYYHRLEAGLDADGKLVGWQHRIVGQSILEGTPFAAVMVKDGIDATSVEGAANLPYAVPNVSVELSTTQVGVPVLWWRVVGSSHTVYAVEAFIDEAAQAAGKDPYLFRRDLLAEQPRLRGVLELAAEKAGWDPSRPLPAGRGRGIAVTEAFKTFVAQVVEVSVDKDGKLKVERVVCAVDCGIPINPDVIAAQMEGGIGFGLGAILHSAITLKDGKVEQNNFDGYQVLRIAEMPKVEVHIVPSGEAPTGVGEPGVAPIGPALANAIFAATGQRLYNLPFPTSFA”, for which the “soluble on expression in E. coli” value is “not soluble”. As for “MAHHHHHHMLRRLGAGTNGQVRRSASSVSYGYLNLTVSDKIMPYVEGLKKKVIYVSSSKDCKAYVQEIQKGVQAGKINCIGLDVEGYKIGRNGTVSIIQVCTQDVYLFDLYKCDNSYLFVKCLKELLEDRRVIKITHDCREDCSILFNQYSICLNRTFDTQVAFNLLLKETKKDLYQISYDDLLYKCLLLNNKHKIYFHKMISLDQKIYLKRPIAKELIQYAIQDVIYLKPLMWSLVDRLLRVCKDGEAGREPFGEDGEARSNPFGEDGEARSNPFGEENPRSIKNGDDVMSEGAHSNLSEHKTNIIKRVTRLSERYINYQFLNTHVKNEKELQKGMTLDGMVVSCNNLNLYVKLNLSRRGVITNCMRNDFEIGDVVKCVILGFCNNDYIKLGLCDPSLCAVKREEGR”, the “soluble on expression in E. coli” value is “not soluble”.

In the case of “MTTAAKTETEDPTARRILDAALEQFTVFGLRRSSMDDVAKRAGVSRVTVYRRFGTKDALVEQTLLRENSRFFQRLDQAVAALPTMEERVVEGFVVALRHTRAHPLFGGLLRLEPEVVLPYLTVHGGSSLAATVDYLTGHLRRAQQAEGRPGDDPRPVAELMVRVAVSFLLNPASCIEMDDEDQARAFARRYLAPLLNA”, the “soluble on expression in E. coli” value is reported as “not soluble”.
